Data on 1 protein can be found in PMC5750462 (Emerging Microbes & Infections, 2017).

The data set deals with the molecule itself. As to the kind of experiment: BLI; […] (PBS, 0.01% BSA, 0.002% Tween-20); […].

B1: recombinant N1-165-domain of wild-type (wt) matrix protein 1 (M1), influenza A virus A/WSN/33 (domain or fragment)
chain: MSLLTEVETYVLSIVPSGPLKAEIAQRLEDVFAGKNTDLEVLMEWLKTRPILSPLTKGILGFVFTLTVPSERGLQRRRFVQNALNGNGDPNNMDKAVKLYRKLKREITFHGAKEIALSYSAGALASCMGLIYNRMGAVTTEVAFGLVCATCEQIADSQHRSHRQM
Regarding B1, the binding result is given as “binds”.
